Assay results from article PMC11423568, “Functional investigation of the two ClpPs and three ClpXs in Myxococcus xanthus DK1622” (mSphere, 2024).
Values belong to the binder of their own block, whether it stands above or below them.

Experiments:
[1] = target: the molecule itself; assay: cross-linking; 20 µM ClpP1 or ClpP2 in 20 mM HEPES, 100 mM NaCl, 1 mM EDTA, pH 7.5, 25°C; glutaraldehyde (0.1% in methods, 1% in legend) 10 min, quenched with 200 mM Tris-HCl pH 7.5; SDS-PAGE
[2] = target: T1, Myxococcus xanthus DK1622 trigger factor Tig (MXAN_2013), His- or MBP-tagged, for pulldown (Myxococcus xanthus DK1622, UniProt Q1DAT1 1-425); assay: pull-down; purified His-tagged and MBP-tagged proteins mixed, room temperature 30 min, passed through Ni-NTA resin (His-tagged protein held), washed with suspension buffer, eluted with 250 mM imidazole; MBP mixed with His-labeled protein as negative control; details: both partners purified
T1 construct: ribosome-associated molecular chaperone trigger factor, Myxococcus xanthus DK1622, locus MXAN_2013; source: E. coli BL21, purified (Ni Sepharose for His tag, maltose elution for MBP)
T1 sequence (looked up): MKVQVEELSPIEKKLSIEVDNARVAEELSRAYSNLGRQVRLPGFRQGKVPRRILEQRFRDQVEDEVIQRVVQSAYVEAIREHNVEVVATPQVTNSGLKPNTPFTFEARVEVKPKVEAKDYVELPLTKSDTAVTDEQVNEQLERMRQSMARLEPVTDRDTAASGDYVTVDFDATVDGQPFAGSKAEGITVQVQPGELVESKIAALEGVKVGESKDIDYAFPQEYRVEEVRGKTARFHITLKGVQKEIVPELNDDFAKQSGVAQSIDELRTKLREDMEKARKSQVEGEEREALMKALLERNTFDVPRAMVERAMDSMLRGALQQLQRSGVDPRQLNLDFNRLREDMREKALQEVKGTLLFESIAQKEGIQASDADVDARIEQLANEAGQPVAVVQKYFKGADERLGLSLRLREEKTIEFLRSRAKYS

B1: Myxococcus xanthus DK1622 ClpP1 (MXAN_2014), no tag (enzyme)
chain: not shown
notes: ClpP1, peptidase subunit of ClpXP, Myxococcus xanthus DK1622, locus MXAN_2014; also called nonlabeled ClpP1; nontagged ClpP1; source: E. coli BL21, purified; copies: 14
stoichiometry N [1]: 14

binding result [2]: binds
B2: Myxococcus xanthus DK1622 ClpP1 (MXAN_2014), His- or MBP-tagged, for pulldown (enzyme)
chain: not shown
notes: ClpP1, peptidase subunit of ClpXP, Myxococcus xanthus DK1622, locus MXAN_2014; source: E. coli BL21, purified (Ni Sepharose for His tag, maltose elution for MBP)
